What all share (experiment): yeast two hybrid mating, growth on selective medium
Assay [1] deals with T1, MDM2 (GenBank Acc. No. M92424) (UniProt Q00987 1-491, limits assumed).
T1 construct: Bait hybrid expressed in yeast strain N106r; also called MDM2 bait
As to the method:
(§1) The two mating strains, alpha and a, were then, diluted in YAPD media (Sherman et al., eds., 1991, *Getting Started with Yeast*, Vol. 194, Academic Press, New York), filtered onto nitrocellulose membranes, and incubated at 30 degrees Celsius for 6–8 hours. The cells were then transferred to media selective for the desired diploids, i.e., yeast harboring reporter genes for beta-galactosidase, uracil auxotrophy, and histidine auxotrophy, and expression of the vectors encoding the bait and prey. The mating products were plated on SC (synthetic complete) (Kaiser et al. eds., 1994, *Methods in Genetics*, 1994 ed., Cold Spring Harbor Press, New York, p. 209) media lacking adenine and lysine (to select for successful mating), leucine and tryptophan (to select for expression of genes encoded by both the bait and prey plasmids), and uracil and histidine (to select for protein interactions). This medium is herein referred to as SCS medium, for SC Selective medium.
(§2) No. X03541, Martin-Zanca, et al., 1986, Nature 319: 743–748), EST M62042 (Adams et al., 1991, Science 252: 1651–1656), Ral GDS (GenBank Acc. No. U14417, Hofer, et al., 1994, Proc. Natl. Acad. Sci. U.S.A. 91: 11089–11093) or E2F (GenBank Acc. […] No. M92424, Oliner et al., 1994, direct submission), CAS (GenBank Acc. No. U33286, Brinkmann et al., 1995, Proc. Natl. Acad. Sci. U.S.A. 92: 10427–10431), and PA9 (GenBank Acc. No. S82076, Yang et al., 1996, Carcinogenesis 17:563–567) Specifically, lack of growth for p62 and β-tubulin interactions with MDM2 is depicted in FIG. 7.

Assay [2] deals with T2, CAS (GenBank Acc. No. U33286) (UniProt P55060 1-971, limits assumed).
T2 construct: Bait hybrid expressed in yeast strain N106r
T2 sequence (looked up): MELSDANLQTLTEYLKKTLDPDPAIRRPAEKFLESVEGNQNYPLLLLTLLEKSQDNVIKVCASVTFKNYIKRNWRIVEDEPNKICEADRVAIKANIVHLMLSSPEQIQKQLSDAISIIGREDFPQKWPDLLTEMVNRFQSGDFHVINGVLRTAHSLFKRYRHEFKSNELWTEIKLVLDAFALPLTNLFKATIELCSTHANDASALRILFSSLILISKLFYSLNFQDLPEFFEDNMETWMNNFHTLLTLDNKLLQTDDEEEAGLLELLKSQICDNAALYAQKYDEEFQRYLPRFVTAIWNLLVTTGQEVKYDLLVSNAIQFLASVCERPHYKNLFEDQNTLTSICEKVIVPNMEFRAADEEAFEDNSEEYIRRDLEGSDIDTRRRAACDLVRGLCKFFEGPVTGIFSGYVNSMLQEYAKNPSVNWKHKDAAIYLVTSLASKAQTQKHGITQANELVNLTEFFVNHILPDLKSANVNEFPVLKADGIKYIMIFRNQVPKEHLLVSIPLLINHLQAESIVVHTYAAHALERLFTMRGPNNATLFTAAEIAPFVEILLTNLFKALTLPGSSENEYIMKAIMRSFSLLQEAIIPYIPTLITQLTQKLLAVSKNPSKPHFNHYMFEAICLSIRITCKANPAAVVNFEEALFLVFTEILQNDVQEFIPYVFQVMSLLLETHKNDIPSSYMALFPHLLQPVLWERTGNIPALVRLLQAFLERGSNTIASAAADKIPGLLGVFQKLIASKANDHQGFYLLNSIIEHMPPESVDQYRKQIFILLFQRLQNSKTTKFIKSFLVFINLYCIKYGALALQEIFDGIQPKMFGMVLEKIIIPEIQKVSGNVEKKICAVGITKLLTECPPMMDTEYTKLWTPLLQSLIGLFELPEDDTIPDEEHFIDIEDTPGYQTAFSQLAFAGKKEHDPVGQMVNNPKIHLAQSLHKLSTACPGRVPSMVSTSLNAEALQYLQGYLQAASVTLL
As to the method: as §1, §2

Assay [3] deals with T3, Ral GDS (GenBank Acc. No. U14417) (UniProt Q12967 1-914, limits assumed).
T3 construct: Expressed as a Gal4 hybrid in yeast
T3 sequence (looked up): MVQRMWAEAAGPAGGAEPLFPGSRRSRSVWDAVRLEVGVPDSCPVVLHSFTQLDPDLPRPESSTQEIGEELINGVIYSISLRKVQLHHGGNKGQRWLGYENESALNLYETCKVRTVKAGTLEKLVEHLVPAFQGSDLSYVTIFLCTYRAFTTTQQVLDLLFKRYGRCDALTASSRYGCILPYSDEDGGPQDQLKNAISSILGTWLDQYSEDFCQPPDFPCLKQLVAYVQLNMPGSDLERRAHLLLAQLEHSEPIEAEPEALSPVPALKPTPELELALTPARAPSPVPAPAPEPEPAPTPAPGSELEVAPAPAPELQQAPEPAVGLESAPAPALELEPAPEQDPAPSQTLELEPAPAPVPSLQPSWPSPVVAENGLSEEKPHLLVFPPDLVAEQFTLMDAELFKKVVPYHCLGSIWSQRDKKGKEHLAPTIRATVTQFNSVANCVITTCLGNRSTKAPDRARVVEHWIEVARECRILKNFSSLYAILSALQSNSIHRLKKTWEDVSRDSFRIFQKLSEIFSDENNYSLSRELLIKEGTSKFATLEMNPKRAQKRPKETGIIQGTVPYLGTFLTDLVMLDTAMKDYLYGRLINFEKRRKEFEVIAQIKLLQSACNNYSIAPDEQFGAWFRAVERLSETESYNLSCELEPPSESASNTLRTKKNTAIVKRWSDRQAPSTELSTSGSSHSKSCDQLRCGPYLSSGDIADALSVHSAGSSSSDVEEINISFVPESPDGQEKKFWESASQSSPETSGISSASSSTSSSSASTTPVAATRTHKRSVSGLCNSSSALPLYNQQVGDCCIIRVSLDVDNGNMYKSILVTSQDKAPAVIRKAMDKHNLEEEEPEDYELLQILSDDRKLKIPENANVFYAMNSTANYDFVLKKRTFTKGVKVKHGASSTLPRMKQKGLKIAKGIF
Here is the method:
as §1, §2

Assay [4] addresses T4, pRb (GenBank Acc. No. M28419) (UniProt P06400 1-928, limits assumed).
T4 construct: Expressed as a Gal4 hybrid in yeast
T4 sequence (looked up): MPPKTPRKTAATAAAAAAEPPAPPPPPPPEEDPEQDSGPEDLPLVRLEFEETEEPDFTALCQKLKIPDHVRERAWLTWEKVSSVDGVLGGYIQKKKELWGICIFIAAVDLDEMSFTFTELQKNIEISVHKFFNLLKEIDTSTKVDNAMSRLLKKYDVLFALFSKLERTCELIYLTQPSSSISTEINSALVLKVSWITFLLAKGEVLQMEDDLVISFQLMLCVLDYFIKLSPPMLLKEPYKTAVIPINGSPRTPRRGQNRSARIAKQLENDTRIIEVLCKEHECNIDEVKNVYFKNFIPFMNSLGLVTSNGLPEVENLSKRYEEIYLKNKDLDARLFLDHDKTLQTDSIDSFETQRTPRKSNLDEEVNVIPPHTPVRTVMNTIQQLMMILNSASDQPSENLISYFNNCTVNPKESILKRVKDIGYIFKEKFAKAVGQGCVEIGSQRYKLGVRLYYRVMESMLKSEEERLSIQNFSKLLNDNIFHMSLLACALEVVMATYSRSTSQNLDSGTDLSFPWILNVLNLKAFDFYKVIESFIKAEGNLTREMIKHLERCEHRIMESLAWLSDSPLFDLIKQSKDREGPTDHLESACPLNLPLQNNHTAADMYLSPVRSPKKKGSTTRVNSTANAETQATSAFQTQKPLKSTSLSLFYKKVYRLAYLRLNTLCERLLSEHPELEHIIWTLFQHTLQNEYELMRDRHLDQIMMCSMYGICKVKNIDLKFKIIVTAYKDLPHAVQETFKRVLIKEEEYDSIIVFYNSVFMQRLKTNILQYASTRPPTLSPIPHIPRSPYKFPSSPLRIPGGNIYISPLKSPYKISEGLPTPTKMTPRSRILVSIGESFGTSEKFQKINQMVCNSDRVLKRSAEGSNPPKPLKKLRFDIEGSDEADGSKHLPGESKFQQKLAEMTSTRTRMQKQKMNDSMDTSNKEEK
As to the method:
as §1, §2

T1 sequence (Q00987 whole entry, one chain of several): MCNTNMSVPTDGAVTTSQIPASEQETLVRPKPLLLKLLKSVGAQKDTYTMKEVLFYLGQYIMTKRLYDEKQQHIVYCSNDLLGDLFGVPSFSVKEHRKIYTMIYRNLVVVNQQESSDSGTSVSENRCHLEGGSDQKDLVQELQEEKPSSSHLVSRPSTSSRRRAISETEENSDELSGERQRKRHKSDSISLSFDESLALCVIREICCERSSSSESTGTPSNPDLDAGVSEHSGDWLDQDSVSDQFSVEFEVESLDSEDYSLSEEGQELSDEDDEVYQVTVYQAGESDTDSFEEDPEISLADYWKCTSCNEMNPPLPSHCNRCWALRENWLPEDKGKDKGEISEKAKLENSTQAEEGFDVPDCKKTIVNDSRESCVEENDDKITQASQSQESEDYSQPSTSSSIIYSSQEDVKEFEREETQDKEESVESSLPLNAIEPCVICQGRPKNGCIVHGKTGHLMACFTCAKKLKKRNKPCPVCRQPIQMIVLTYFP

B1: p62 prey sequence, amino acids 275-443 (other, yeast)
chain: NGVPEPSRGRGVPVRGRGAAPPPPPVPRGRGVGPPRGALVRGTPVRGAITRGATVTRGVPPPPTVRGAPAPRARTAGIQRIPLPPPPAPETYEEYGYDDTYAEQSYEGYEGYYSQSQGDSEYYDYGHGEVQDSYEAYGQDDWNGTRPSLKAPPARPVKGAYREHPYGRY
For the molecule B1, the binding result in assay [1] and in assay [2] was “no binding” in each case.

B2: 53BP2 bait fragment, amino acids 704-1005 (C-terminus) of human 53BP2 (other)
chain: SPGLDYEPEGVPDNSPNLQNNPEEPNPEAPHVLDVYLEEYPPYPPPPYPSGEPEGPGEDSVSMRPPEITGQVSLPPGKRTNLRKTGSERIAHGMRVKFNPLALLLDSSLEGEFDLVQRIIYEVDDPSLPNDEGITALHNAVCAGHTEIVKFLVQFGVNVNAADSDGWTPLHCAASCNNVQVCKFLVESGAAVFAMTYSDMQTAADKCEEMEEGYTQCSQFLYGVQEKMGIMNKGVIYALWDYEPQNDDELPMKEGDCMTIIHREDEDEIEWWWARLNDKEGYVPRNLLGLYPRIKPRQRSLA
notes: also called BBP; not shown: residues not
As for B2, the binding result in assay [3] and in assay [4] was “no binding” in each case.

For the origin of these results see patent US6627405 (CURAGEN, dated 2003).
